The source of these data is patent publication WO2017153426A1 (dated 2017).

The target in this assay is native TSLP (supernatant from stimulated human lung fibroblasts) (human, UniProt Q969D9 29-159, limits assumed). As to the kind of experiment: cell-based or functional assay.

B1: DOM30h-440-81/86 (other)
chain: DIQMTQSPSSLSASVGDRVTITCRASRPIRNWLDWYQQKPGKAPKLLIWGASHLQSGVPSRFSGSGSGTDFTLTISSLQPEDFATYYCVQIGEDPVTFGQGTKVEIK
Turning to B1, the “Geometric Mean IC50, inhibition of TSLP-induced pSTAT5 in SW756 cells” value was 0.86 nM.
